According to the Immune Epitope Database (IEDB):

target: HLA-A*03:01; experiment: IEDB peptide-MHC binding, purified MHC/competitive/radioactivity; filed as Kd, often an IC50 or EC50 that approximates it; ≥ and ≤ were set here for values at or beyond the usual limits of such assays; details: source organism: Dengue virus 1 Singapore/S275/1990

Row | Sequence | Kd [nM]
1 | ILARWGSFKK | 9.69
2 | GLAMGIMILK | 20.7

same assay, conditions: source organism: Dengue virus 2 Jamaica/1409/1983

Row | Sequence | Kd [nM]
3 | GVFTTNIWLK | 29.3

same assay, conditions: source organism: Dengue virus 3 Martinique/1243/1999

Row | Sequence | Kd [nM]
4 | MILLTMKNK | 49.7
5 | SLRTTTVSGK | 5.78
6 | LISGKGIGK | 722
7 | ALAFHLTSR | 34.9

same assay, conditions: source organism: Dengue virus 4 Philippines/H241/1956

Row | Sequence | Kd [nM]
8 | GLSSRATWAK | 35.2
9 | VASAGISYK | 28.4
10 | MVTFKVPHAK | 80.3

same assay, conditions: source organism: Lassa virus Josiah

Row | Sequence | Kd [nM]
11 | ICKMPLPTK | 891

same assay, conditions: source organism: Mammarenavirus guanaritoense

Row | Sequence | Kd [nM]
12 | VTEFRRTAIH | ≥ 33100
13 | TMEIEDQEYH | ≥ 70000

same assay, conditions: source organism: Mammarenavirus tacaribeense

Row | Sequence | Kd [nM]
14 | NCKCCWFADK | 13300

same assay, conditions: source organism: Murray valley encephalitis virus (strain MVE-1-51)

Row | Sequence | Kd [nM]
15 | VQTKPGIFK | 274

same assay, conditions: source organism: SARS coronavirus Tor2

Row | Sequence | Kd [nM]
16 | MSYYCKSHK | 15.1
17 | IIMRCWLCWK | 1.65
18 | ASGNLLLDK | 694
19 | VVQRCASNK | 663
20 | LFCLLNRYFR | 1240
21 | SASAFFGMSR | 966
22 | SVKSFEIDK | 1560
23 | MQTMLFTMLR | 72.4
24 | RLISMMGFK | 3.18
25 | QMAPVSAMVR | 527
26 | SLRCGACIRR | 265
27 | QQVVDADSK | ≥ 28000
28 | AVHECFVKR | 3320
29 | VVSTGYHFR | 31.5
30 | LLFQLCTFTK | 15.2
31 | AQPLPQRQK | ≥ 23600

same assay, conditions: source organism: Vaccinia virus Copenhagen

Row | Sequence | Kd [nM]
32 | YLLVKWYKK | 113

same assay, conditions: source organism: Vaccinia virus WR

Row | Sequence | Kd [nM]
33 | VIEDITFLR | 1560
34 | TAVCMKCFK | 211
35 | GLSETGFMR | 16300
36 | DLVKSSFVK | 1790
37 | NFPQHVITK | 4020
38 | LFVKKMLPK | 1510
39 | FVKKFGLCNY | ≥ 22800
40 | YSHLLPTQR | 4030
41 | EILKINSVK | 713
42 | SAKQLRTRIR | ≥ 70100
43 | FSKSTSPTR | ≥ 42200
44 | FSKNILKYY | ≥ 21200
45 | GFMRFFQLLR | 526
46 | QAIEPSGNNY | ≥ 70100
47 | ETKITFALKK | 1230
48 | KSDAKRNSK | 1150
49 | PLYIDISDVK | 156

Row | Sequence | Kd [nM]
50 | LFKRERDAIK | ≥ 30000
51 | ILTYNKTSK | 45.8
52 | SMNVAVIDK | ≥ 67700
53 | GTSNWTGNY | 11.5
54 | DLVKSYSLIR | ≥ 10000
55 | DFRNRYEDY | 2770
56 | LLIWAYLSK | 90.7
57 | RQTVSRFKK | 39.7
58 | AVRYYDGNIY | 2500
59 | LSSKGLACYR | 129
60 | HSVFKGFSDK | 11.6
61 | ILSYIYSEIK | 38.8
62 | CAGVIEYAK | 988
63 | TLDQLEDSEY | 8620
64 | QTCAGVIEY | 3200
65 | ILHAYCGIK | 32.8
66 | FINFFNLLAK | 8.96

target: HLA-A*68:01; experiment: as above; details: source organism: Dengue virus 1 Brazil/97-11/1997

Row | Sequence | Kd [nM]
67 | EATARGARR | 12.5

same assay, conditions: source organism: Dengue virus 2 Jamaica/1409/1983

Row | Sequence | Kd [nM]
68 | TIGTTHFQR | 18.4
69 | GVFTTNIWLK | 1.45
70 | NMISRMLINR | 137

same assay, conditions: source organism: Dengue virus 3 Martinique/1243/1999

Row | Sequence | Kd [nM]
71 | MSAAVKDER | 74.3

same assay, conditions: source organism: Dengue virus 4 Philippines/H241/1956

Row | Sequence | Kd [nM]
72 | MLVAPSYGMR | 7.59
73 | EGAWKHAQR | 115
74 | TTAKEVALLR | 73.3
75 | TLFVEECLR | 30.1
76 | MVTFKVPHAK | 133

same assay, conditions: source organism: Lassa virus Josiah

Row | Sequence | Kd [nM]
77 | ICKMPLPTK | 17200

same assay, conditions: source organism: Mammarenavirus guanaritoense

Row | Sequence | Kd [nM]
78 | VTEFRRTAIH | 15300
79 | TMEIEDQEYH | 8530

same assay, conditions: source organism: Mammarenavirus tacaribeense

Row | Sequence | Kd [nM]
80 | NCKCCWFADK | ≥ 20700

same assay, conditions: source organism: SARS coronavirus Tor2

Row | Sequence | Kd [nM]
81 | ATNNVFRLK | 11.6
82 | MSYYCKSHK | 55.3
83 | IIMRCWLCWK | 0.903
84 | ASGNLLLDK | ≥ 38100
85 | VVQRCASNK | ≥ 48300
86 | LFCLLNRYFR | 251
87 | SASAFFGMSR | 10
88 | SVKSFEIDK | 729
89 | MQTMLFTMLR | 1.1
90 | RLISMMGFK | 716
91 | QMAPVSAMVR | 157
92 | SLRCGACIRR | 915
93 | QQVVDADSK | ≥ 65800
94 | AVHECFVKR | 79.6
95 | VVSTGYHFR | 7.34
96 | LLFQLCTFTK | 66.3
97 | AQPLPQRQK | 3030

same assay, conditions: source organism: Vaccinia virus Copenhagen

Row | Sequence | Kd [nM]
98 | YLLVKWYKK | ≥ 23400

same assay, conditions: source organism: Vaccinia virus WR

Row | Sequence | Kd [nM]
99 | VIEDITFLR | 11.8
100 | TAVCMKCFK | 11.3
101 | GLSETGFMR | 2130
102 | DLVKSSFVK | 77
103 | NFPQHVITK | 1250
104 | LFVKKMLPK | 470
105 | FVKKFGLCNY | ≥ 37100
106 | YSHLLPTQR | 25.5
107 | EILKINSVK | 2.64
108 | SAKQLRTRIR | ≥ 28800
109 | FSKSTSPTR | 9.78
110 | FSKNILKYY | 5490
111 | GFMRFFQLLR | 2410
112 | QAIEPSGNNY | 692
113 | ETKITFALKK | 74.8
114 | KSDAKRNSK | ≥ 77700
115 | PLYIDISDVK | 1420

Row | Sequence | Kd [nM]
116 | LFKRERDAIK | ≥ 35500
117 | ILTYNKTSK | 442
118 | SMNVAVIDK | 4880
119 | GTSNWTGNY | 3720
120 | DLVKSYSLIR | 1630
121 | DFRNRYEDY | 3700
122 | LLIWAYLSK | 153
123 | RQTVSRFKK | 4630
124 | AVRYYDGNIY | 3040
125 | LSSKGLACYR | 4.75
126 | HSVFKGFSDK | 52
127 | ILSYIYSEIK | 1240
128 | CAGVIEYAK | 51.1
129 | TLDQLEDSEY | 4070
130 | QTCAGVIEY | 1760
131 | ILHAYCGIK | 1860
132 | FINFFNLLAK | 6.53

target: HLA-A*33:01; experiment: as above; details: source organism: Dengue virus 1 Brazil/97-11/1997

Row | Sequence | Kd [nM]
133 | DTRTPRAKR | 29.8
134 | EATARGARR | 36.7

same assay, conditions: source organism: Dengue virus 2 Jamaica/1409/1983

Row | Sequence | Kd [nM]
135 | WTLMYFHRR | 6.56
136 | EMGANFKAER | 15.5
137 | NMISRMLINR | 7.06
138 | LMCHATFTMR | 89
139 | MPSMKRFRR | 6.72

same assay, conditions: source organism: Dengue virus 3 Martinique/1243/1999

Row | Sequence | Kd [nM]
140 | AIWYMWLGAR | 57.3

same assay, conditions: source organism: Dengue virus 4 Dominica/814669/1981

Row | Sequence | Kd [nM]
141 | IGKMFESTYR | 176

same assay, conditions: source organism: Dengue virus 4 Philippines/H241/1956

Row | Sequence | Kd [nM]
142 | TLFVEECLR | 86.3

same assay, conditions: source organism: Lassa virus Josiah

Row | Sequence | Kd [nM]
143 | ICKMPLPTK | ≥ 47400

same assay, conditions: source organism: Mammarenavirus guanaritoense

Row | Sequence | Kd [nM]
144 | VTEFRRTAIH | 5850
145 | TMEIEDQEYH | ≥ 70000

same assay, conditions: source organism: Mammarenavirus tacaribeense

Row | Sequence | Kd [nM]
146 | NCKCCWFADK | ≥ 29600

same assay, conditions: source organism: SARS coronavirus Tor2

Row | Sequence | Kd [nM]
147 | ATNNVFRLK | 6410
148 | MSYYCKSHK | 1590
149 | IIMRCWLCWK | 198
150 | ASGNLLLDK | ≥ 77700
151 | VVQRCASNK | ≥ 77700
152 | LFCLLNRYFR | 36.1
153 | SASAFFGMSR | 121
154 | SVKSFEIDK | 12200
155 | MQTMLFTMLR | 13.3
156 | RLISMMGFK | ≥ 77700
157 | QMAPVSAMVR | 7320
158 | SLRCGACIRR | 89.5
159 | QQVVDADSK | ≥ 77700
160 | AVHECFVKR | 1270
161 | VVSTGYHFR | 41.2
162 | LLFQLCTFTK | 6910
163 | AQPLPQRQK | ≥ 77700
